Test: soluble on expression in E. coli; label from the status in PepcDB or PDB records

Row | Sequence | soluble on expression in E. coli
1 | RPRNALLLLADDGGFESGAYNNSAIATPHLDALARRSLLFRNAFTSVSSCSPSRASLLTGLPQHQNGMYGLHQDVHHFNSFDKVRSLPLLLSQAGVRTGIIGKKHVGPETVYPFDFAYTEENGSVLQVGRNITRIKLLVRKFLQTQDDRPFFLYVAFHDPHRCGHSQPQYGTFCEKFGNGESGMGRIPDWTPQAYDPLDVLVPYFVPNTPAARADLAAQYTTVGRMDQGVGLVLQELRDAGVLNDTLVIFTSDNGIPFPSGRTNLYWPGTAEPLLVSSPEHPKRWGQVSEAYVSLLDLTPTILDWFSIPYPSYAIFGSKTIHLTGRSLLPALEAEPLWATVFGSQSHHEVTMSYPMRSVQHRHFRLVHNLNFKMPFPIDQDFYVSPTFQDLLNRTTAGQPTGWYKDLRHYYYRARWELYDRSRDPHETQNLATDPRFAQLLEMLRDQLAKWQWETHDPWVCAPDGVLEEKLSPQCQPLHNEL | soluble
2 | MGSDKIHHHHHHMTAALPAGSDLVIVLPHLGPGGAQKVALMAAEHFLVQGRQVTLVTLLPDKPLSHAVPEGLRWVDLGPAVAETTSNRAPIARIWRFSCTWGRRSLAWISLVIGWKVLKRLVPGQAPLFVQWLVSSASGVQATLLRDLLYAGKPARVLSLLTRTNLLCCQAMWALPGHLVVSERNDPRLQKQSFPWLRLRSWLWQRADVITANTIGVLEGLQHCHPAMADDMRLLPNPLVVDSHPGNHSDEPASGTCFLAVCRLVPQKGIDLLIQAYAQLPEPLREMWPLLIAGDGPERASLETLASSLLPRGQVRFMGFQRNPQVLYHRDAVFVLSSRFEGMPNSLLEAMGSGLAVIVSDASPGPLEVVVHGKSGWVVPTEKVTLLAEAMQAMAENPALRCRLGDAAAEFMDAYSWDTLDPIWSDILCLEKPG | not soluble
3 | GPVDEVSFHSVVQQLKARQQATDEQLEELQEAFAKVQERNSVFSDWLKISAMLCAATLALSQVVKMAKAVKQMVKPDLVRVQLDEQEQGPYNETARVKPKTLQLLDIQGPNPVMDFEKYVAKHVTAPIGFVYPTGVSTQTCLLVRGRTLVVNRAMAESDWTSIVVRGVTHARSTVKILAIAKAGKETDVSFIRLSSGPLFRDNTSKFVKAGDVLPTGAAPVTGIMNTDIPMMYTGTFLKAGVSVPVETGQTFNHCIHYKANTRKGWSGSALLADLGGSKKILGIHSAGSMGIAAASIVSQEMIRAVVNAFEPQ | soluble
4 | MGSDKIHHHHHHMNIKEKIAVQLYSVRKEMERDLEGTLRKMHEIGFRYVQLDGMRGNDPSEVRRLLQKYELKVIGMHIKHDRFMNDLDGIIEEAYFFDCKTVFDKYIEEEDQTTAGYTATKAALINAAEKLHPLGFRIGLHNPEYDFNECIHGRRVMDYITDPVDGICIYAEPDTYWIRAAGHDETEFIKRYSGRAPIVHMKDFLSGFELEDMDNNLVEIGQGEVDFRAIIEWGEANGVEYYCIEQDKSKRAMFETLEASYQYLLQL | not soluble
5 | MPDGAQIQGLRPNGQSMEADMKLAVVTGQIVCTVRHQGLAHDKLLMVEMIDAQGNPDGQCAVAIDSIGAGTGEWVLLVSGSSARQAHRSELSPVDLCVIGIVDEVVAGGKVVFHKLEHHHHHH | not soluble
6 | MGSDKIHHHHHHMERTDDESNKQPVILPPMIRIAYCTPSLHIPGGVERVLTTKANYLAENGNYDIYILLTDGKGKPPCYTLSPKVKIIQLDIDFEELWELPLWKKVPVYLKKQRIYRRKLSAALSHLKPDITVSLLRREINFITSLKDGSKKIGELHVNRKNYRNFEKNESNFIKELFAKLWMKSLVRHLKKLDKFVVLSEEDRANWPELQNVKVISNPLPFQSGTFSDLNNKRITAAGRYTYQKGFDLLLEAWSKICNRHPDWELHIYGKGNKTTYQVLAGKWKLKNLFLENATPDMLCKYHESSIFVSSSRFEGFGMVIAEAMACGVPAVSFACPCGPKDIIRDGEDGLLVENGKTEELAEKINYLIENEQIRKEMGKKARINVQRFAEDVIMQQWIQLFNNLLNGTKQ | not soluble
7 | MGSDKIHHHHHHMNIGLLEALDQLEEEKGISKEEVIPILEKALVSAYRKNFGNSKNVEVVIDRNTGNIKVYQLLEVVEEVEDPATQISLEEAKKIDPLAEVGSIVKKELNVKNFGRIAAQTAKQVLIQRIRELEKEKQFEKYSELKGTVTTAEVIRVMGEWADIRIGKLETRLPKKEWIPGEEIKAGDLVKVYIIDVVKTTKGPKILVSRRVPEFVIGLMKLEIPEVENGIVEIKAIAREPGVRTKVAVASNDPNVDPIGACIGEGGSRIAAILKELKGEKLDVLKWSDDPKQLIANALAPATVIEVEILDKENKAARVLVPPTQLSLAIGKGGQNARLAAKLTGWKIDIKPIMNL | not soluble
8 | MSLSARAEDINNIENKTIGHGRTSYNKSVSGRVENIRLSTESVDYVVLGSGDTFTFNGIVGERTKERGYQVASVIMDGDFTDGLGGGICQTSTTLYNAVLDAGLTVLERHPHSLPVGYVEEGMDAMVSWGSADLRFRNDFDYPVVIRGGVDKEKGEVWFDIREGHHHHHH | soluble
9 | MSLTKSVAIIGAGITGLSSAYFLKQQDPNIDVTIFEASNRPGGKIQSYRKDGYMIELGPESYLGRKTIMTELAKDIGLEQDIVTNTTGQSYIFAKNKLYPIPGGSIMGIPTDIKPFVTTKLISPLGKLRAGLDLIKKPIQMQDGDISVGAFFRARLGNEVLENLIEPLMGGIYGTDIDKLSLMSTFPNFKEKEEAFGSLIKGMKDEKNKRLKQRQLYPGAPKGQFKQFKHGLSSFIEALEQDVKNKGVTIRYNTSVDDIITSQKQYKIVYSNQQEDVFDGVLVTTPHQVFLNWFGQDPAFDYFKTMDSTTVATVVLAFDEKDIENTYDGTGFVIARTSDTDITACTWTSKKWPFTTPEGKVLIRAYVGKPGDTVVDDHTDNELVSIVRRDLSQMMTFKGDPEFTIVNRLPKSMPQYHVGHIQQIRQIQAHIKQTYPRLRVTGASFEAVGLPDCITQGKVAAEEVIAELEGHHHHHH | soluble
10 | MALEPIDYTTHSREIDAEYLKIVRGSDPDTTWLIISPNAKKEYEPESTGSSFHDFLQLFDETKVQYGLARVSPPGSDVEKIIIIGWCPDSAPLKTRASFAANFAAVANNLFKGYHVQVTARDEDDLDENELLMKISNAAGA | soluble
11 | MGSDKIHHHHHHMFKSTLNSIIRRPLKGFQLLRGADSSNTRPQSPRASARDVTEKQILRTPSAPTAIPLREIIYRVPSLFPRPLEDSVKDFRDFIKNEDAFQTELLKTLPFYPTPSESKTARLIRTVVDDEGNYINEFCIRPRKTSVPEADLKHLVFIHGYGAGLGFFIKNFEDIPLLDNEWCIHAIDLPGYGFSSRPKFPFEYPRDNIHSVQDWFHERIHTWFSKRNLLNRPEKNIVMAHSLGSYLMALYLQKYKESPSFKKLILCSPAGVSYRDFNNTASEVEKWKPPPWWYVKLWDRNISPFTLVRNFRQLGSKITSGWSYRRFKHILNGDPEQSKRFEALHRYAYAIFNKRGSGEYLLSFALKCGGEPRLSLEQQLFDGKKSDILKNSNCDWLWLYGDDDWMDVNGGLRVSRFLKEKLKQKSNVIIVPHSGHHLYLDNYKFFNNILTKEMQKI | not soluble
12 | MTSENSESQDIWLTDEQQDVWLDVWTMRIGLPARLDAQLKEAAGVSHFEYFTMAQISMAPEHRVRMSELAELSDMTLSHLSRVVTRLEKAGWVKRVPDPDDGRATVAVLTDSGWEKVKATAPGHVKEVRRLVFDDLTPEELKVMGTAMKKIVNRLDMSNRLPRV | not soluble
13 | MAHHHHHHMKYNEAQMRFYLLCLNMKQANTKEDKSQKISNSSTIDEIEEEQLYTGPLKIEQLLAKGFVKRDLELLKEGGLQTVECVAYAPMRTLCAIKGISEQKAEKLKKACKELCNSGFCNAIDYHDARQNLIKFTTGSKQLDALLKGGIETGGITELFGEFRTGKSQLCHTLAITCQLPIEQSGGEGKCLWIDTEGTFRPERIVAIAKRYGLHPTDCLNNIAYAKAYNCDHQTELLIDASAMMADARFALLIVDSATALYRSEYIGRGELANRQSHLCRFLRGLQRIADIYGVAVIITNQVVAKVDAMSMFGGHEKIPIGGNIIAHASQTRLYLRKGRGESRICKIYDSPVLPEGEAVFAITEGGIADYEEK | not soluble
14 | MGSDKIHHHHHHMKRSQINEIMAEAETFMRSFGFVLPPFAYWTPEEMRANASVAKAVIDGRLGWDITDYGEGKFDELGLFLFTLRNGRLSDLQAGGGMCYAEKLLISKQDQISPMHRHMLKAEDIINRGGATMAIELNGSAPDGSFDPDAGGVVMCDGIERRFSAGEVLLFAPGESVTLMPGDWHKFWGEGGDVLIGEVSTVNNDDTDNWFREPIGRFAAVDEDVAPTHLLVSDYGTWL | not soluble
15 | MVICLSTEISLVAATLNEIGNIATFLDKVEKELIYYNFEIIIVDDNSSDGTKEYLAERSLKDKNLHVIENPYRVGMLGSLKMGINSAKGKYCIVMDADLQHPPEAILSIIERLNHGCDIVVGSRYVNGGSAGDRNSYRALLSIGAQYLSYLFLRSARSTTDPMSGFFGFQTSMNHDFSYKNRFKLTDMGAKILLLLLAENQNCNVCDVGYVFRSRERGKSKIVSGMSFLERYMSELLDAMIVERQWKNRGCLEHHHHHH | not soluble
16 | MKLSEIYNFLDQLSPFNIQESWDNSGILLGDRDSEISTVYLSLDIDENIIKEASENSLIITHHPLIFKGLKDLYDKTYPRAFIKEMIYKNISLISMHTNYDLSHLNTYFTEEILGFKISFKDKFLIYVENSMSFEALCDWVKKKLNLQILRVSDCGKKDIKRIAICTGSGGDLISKVDADCFLSGDFKYHQALEALSNQISLIDLGHFESERYFSQCLAKDLKNLPLQVIITVSKNPFQYFLEHHHHHH | soluble
17 | MQPKLIILRGNSGSGKTTIANALHQCLKEQSLLISQDVVRREMLRVKDETGNLSIALLKQLVAFGYQECQYVIVEGIFQKAIYHSFFQEIIHLFEGNVQVYYFDISFEETLKRHSQRNKNQEFGVVEMKRWWLPEDYLGFPGEQRLSEQLSEKQIIRQILADIQ | not soluble
18 | MSLTKALTFTILHNDMPTYPMKRDWLFWKEVTERTGVTLKPTSVPASDYDKKRSLLIGAGDAPLLIPKTYPGQETAFVSSGAILPVSEYVRLMPNFRAKVEKWGLEGDLDSIRQADGNYYVLPGLHEKVKSGYSLSFRTDVLKKHGLDLPTTWDQVYDVLKALKAAYPDVYPFSDRWGQPTPGGALLNYLGPAFGTKAGWSYANTAWDTKARKYVFTGATDEYRQMLEYLRKLVAEKLMDPESFTQSDDDAVRKLLSGKSFVISANPQELVQNYRYNLGKQVKGATIEMIPVPIGPTGEVIVGSRLENGLMVAGRAAEGDSFVAMMQFVDWLWYSDGGQEFAKYGVEGVTYTSSGAGRYKVADGISYMGSDPSAPKDLQKDYGFTNGEFAYGGSWALVSSSFSPDEKAFQDAMAGRKLLPVDPAHPLKADEQEQATLWDTPLKDHVTQNTLKFALGKRPMSEWDAYLAELKAKNMQRYIDLHNTAYERFKKEHEGHHHHHH | not soluble
19 | MKFSIIVPSYNSEKYIAELLNSLQNQSYDKKDFEVILVDDCSSDNTLNVVEAYKNKLNLIIKQLDTNSGGPGKPRNTALQLAQGEYVFFVDSDDYINKDTLKDVSKFVDQNHADVVLVKMEGVNGRGVPKSMFKETSDAVTLANSRIIYTLSPTKFYRTSLLRDHAIEFPEDLRSAEDQLFTMKAYVNAKRIAVLADKPYYYATKREGEHMSSAYVSPEDFYKVMSLITEEILNSPLENKNEVLGYFIDRHFSFSRTNNFSLKIADDKKEAWMDALGDFIQKVPTVVDELVNDSFKPLLHYARLKDMKHYQMVEESYKNGKFHSYSAQEGTLKIQFDEGEPYFVFKKLVKPDIRMSHFEFNDQGFELELEFISSIINPNHVASMIQLKLLSRNKKEFIYIPLTMNDQTRFKFKADLNDLMPYLIKEKVWDAHLEMRVDNMTIEKRIGNKRVKYPYSKETSTITQYNNQYYRFTPYFTKDFDNLSFYITSNKLNEMLAVEIKDKQTIQLRSLEFNYILSEGMTAVILPHMFTYGYLTSVTTKDTLTYHLSVGEKVKDKDLKKNFKIETPHLVLKYLEHHHHHH | soluble
